Tests used:
[1] = molecular target: T1, Authentic CoV2 (SARS-CoV-2 JPN/TY/WK-521); experiment: cell-based or functional assay
[2] = molecular target: SARS-CoV-2 spike receptor-binding domain (RBD, amino acids 322 to 536), histidine-tagged (Example 2) (SARS-CoV-2, UniProt P0DTC2 322-536)
[3] = molecular target: MERS-CoV recombinant S protein RBD region, 9x His tag (Example 1) (MERS-CoV, UniProt K9N5Q8 367-606); experiment: ELISA on RBD-coated plate (FIG. 3)
[4] = molecular target: SARS-CoV1 recombinant S protein RBD region, 9x His tag (Example 1) (SARS-CoV1, UniProt P59594 306-527); experiment: ELISA on RBD-coated plate (FIG. 3)
[5] = molecular target: T1, Authentic CoV2; experiment: cell-based or functional assay; remark: listed apart in the source
[6] = molecular target: T2, SARS-CoV2 S protein on VSV pseudovirus (SARS-CoV-2, UniProt P0DTC2 14-1273); experiment: cell-based or functional assay
[7] = molecular target: T2, SARS-CoV2 S protein on VSV pseudovirus; experiment: cell-based or functional assay; remark: listed apart in the source
[8] = molecular target: T3, SARS-CoV1 spike protein on VSV pseudovirus (SARS-CoV-1, UniProt P59594 14-1255); experiment: cell-based or functional assay
[9] = molecular target: T3, SARS-CoV1 spike protein on VSV …; experiment: cell-based or functional assay; remark: listed apart in the source

B1: NT-108 (recombinant human IgG1/kappa antibody) (antibody, V domains shown)
VH: EVQLQQSGPGLVKPSQTLSLTCSISGDSVSSNSAAWNWIRQSPSRGLEWLGRTYYRSKWYNDYAGTVKSRIAINPDTSKNQFSLHLNSVTPEDTAVYFCARVISVAGYAFDIWGQGTMVTVSS
VL: EIVLTQSPGTLSLSPGERATLSCRASQSVSSTFLAWYQQKPGQAPRLLIYGASYMATGIPDRFSGSGSGTDFTLTISRLEPEDFAVYYCQQYGSSLTFGGGTKLEIK
- IC50, authentic virus neutralization [NT-108] [1]: 0.116 µg/mL
- EC50 [2]: 0.455 µg/mL
- binding result [3]: no binding
- binding result [4]: no binding
- IC50, authentic virus neutralization [5]: 0.0403 µg/mL
- IC50, pseudovirus neutralization [6]: 0.0061 µg/mL
- IC50, pseudovirus neutralization [NT-108] [7]: 0.0057 µg/mL

B2: NT-108, human IgG4 subclass (antibody, V domains shown)
VH: EVQLQQSGPGLVKPSQTLSLTCSISGDSVSSNSAAWNWIRQSPSRGLEWLGRTYYRSKWYNDYAGTVKSRIAINPDTSKNQFSLHLNSVTPEDTAVYFCARVISVAGYAFDIWGQGTMVTVSS
VL: EIVLTQSPGTLSLSPGERATLSCRASQSVSSTFLAWYQQKPGQAPRLLIYGASYMATGIPDRFSGSGSGTDFTLTISRLEPEDFAVYYCQQYGSSLTFGGGTKLEIK
- IC50, authentic virus neutralization [NT-108] [1]: 0.116 µg/mL
- IC50, pseudovirus neutralization [NT-108] [7]: 0.0031 µg/mL

B3: NT-108, human IgG2 subclass (antibody, V domains shown)
VH: EVQLQQSGPGLVKPSQTLSLTCSISGDSVSSNSAAWNWIRQSPSRGLEWLGRTYYRSKWYNDYAGTVKSRIAINPDTSKNQFSLHLNSVTPEDTAVYFCARVISVAGYAFDIWGQGTMVTVSS
VL: EIVLTQSPGTLSLSPGERATLSCRASQSVSSTFLAWYQQKPGQAPRLLIYGASYMATGIPDRFSGSGSGTDFTLTISRLEPEDFAVYYCQQYGSSLTFGGGTKLEIK
- IC50, authentic virus neutralization [NT-108] [1]: 0.101 µg/mL
- IC50, pseudovirus neutralization [NT-108] [7]: 0.002 µg/mL

B4: NT-108, human IgG3 subclass (antibody, V domains shown)
VH: EVQLQQSGPGLVKPSQTLSLTCSISGDSVSSNSAAWNWIRQSPSRGLEWLGRTYYRSKWYNDYAGTVKSRIAINPDTSKNQFSLHLNSVTPEDTAVYFCARVISVAGYAFDIWGQGTMVTVSS
VL: EIVLTQSPGTLSLSPGERATLSCRASQSVSSTFLAWYQQKPGQAPRLLIYGASYMATGIPDRFSGSGSGTDFTLTISRLEPEDFAVYYCQQYGSSLTFGGGTKLEIK
- IC50, authentic virus neutralization [NT-108] [1]: 0.049 µg/mL
- IC50, pseudovirus neutralization [NT-108] [7]: 0.001 µg/mL

B5: NT-193 (recombinant human IgG1/kappa antibody) (antibody, V domains shown)
VH: EVQLQQWGAGLLKPSETLSLTCAVYGGSFSGYYWSWIRQPPGKGLEWIGEINHSGSTNYNPSLKSRVTISVDTSKNQFSLKLSSVTAADTAVYYCARGWDLDYYYGMDVWGQGTTVTVSS
VL: DIRMTQSPSAMSASVGDRVTVTCRASQGIGNYLAWFQLKPGKVPKRLIYAASSLQSGVPARFSGGGSGTEFTLTISSLQPEDFATYYCLQHGFLPWTFGQGTKLEIK
- IC50, pseudovirus neutralization [8]: 0.0061 µg/mL
- IC50, authentic virus neutralization [NT-193] [1]: 0.241 µg/mL
- IC50 of the neutralizing activity against SARS-CoV (pseudovirus) [9]: 0.013 µg/mL
- IC50, authentic virus neutralization [5]: 0.0851 µg/mL
- IC50, pseudovirus neutralization [6]: 0.0209 µg/mL
- IC50, pseudovirus neutralization [NT-193] [7]: 0.0111 µg/mL

B6: NT-193, human IgG4 subclass (antibody, V domains shown)
VH: EVQLQQWGAGLLKPSETLSLTCAVYGGSFSGYYWSWIRQPPGKGLEWIGEINHSGSTNYNPSLKSRVTISVDTSKNQFSLKLSSVTAADTAVYYCARGWDLDYYYGMDVWGQGTTVTVSS
VL: DIRMTQSPSAMSASVGDRVTVTCRASQGIGNYLAWFQLKPGKVPKRLIYAASSLQSGVPARFSGGGSGTEFTLTISSLQPEDFATYYCLQHGFLPWTFGQGTKLEIK
- IC50, authentic virus neutralization [NT-193] [1]: 0.247 µg/mL
- IC50, pseudovirus neutralization [NT-193] [7]: 0.0044 µg/mL

B7: NT-193, human IgG2 subclass (antibody, V domains shown)
VH: EVQLQQWGAGLLKPSETLSLTCAVYGGSFSGYYWSWIRQPPGKGLEWIGEINHSGSTNYNPSLKSRVTISVDTSKNQFSLKLSSVTAADTAVYYCARGWDLDYYYGMDVWGQGTTVTVSS
VL: DIRMTQSPSAMSASVGDRVTVTCRASQGIGNYLAWFQLKPGKVPKRLIYAASSLQSGVPARFSGGGSGTEFTLTISSLQPEDFATYYCLQHGFLPWTFGQGTKLEIK
- IC50, authentic virus neutralization [NT-193] [1]: 0.212 µg/mL
- IC50, pseudovirus neutralization [NT-193] [7]: 0.0065 µg/mL

B8: NT-193, human IgG3 subclass (antibody, V domains shown)
VH: EVQLQQWGAGLLKPSETLSLTCAVYGGSFSGYYWSWIRQPPGKGLEWIGEINHSGSTNYNPSLKSRVTISVDTSKNQFSLKLSSVTAADTAVYYCARGWDLDYYYGMDVWGQGTTVTVSS
VL: DIRMTQSPSAMSASVGDRVTVTCRASQGIGNYLAWFQLKPGKVPKRLIYAASSLQSGVPARFSGGGSGTEFTLTISSLQPEDFATYYCLQHGFLPWTFGQGTKLEIK
- IC50, authentic virus neutralization [NT-193] [1]: 0.127 µg/mL
- IC50, pseudovirus neutralization [NT-193] [7]: 0.001 µg/mL
